Values quoted from earlier work as cited in paper PMC6679586.

Target: Activin A mature domain mature domain (Homo sapiens) (UniProt P08476)

Activin A prodomain prodomain (from UniProt P08476)
Kd: 5 nM
